Assay results reported in a protein production outcome set (Wang et al. 2014).

Assay: label from the status in PepcDB records

Row | Sequence | protein production
1 | MENWFRADTWFGRLVDVGNTFIWTYVLIALLLGLGLYFTFVSRFVQFRLLGEMGRLLVEGMNRKAFKERKGTSSFQAFAISTAARVGTGNLAGVAVAISLGGPGAIFWMWIIALIGAATGFIESTLAQIYKVKDKDGFRGGPAYYMEKALNARWAGILFAILITLCFGLIFNAVQTHTIADAFVGAYDLNPFFIGLIIAFVMAFIVFGGIRRIAVIAEVIVPTFAIAYVLIALVIVLLNITQVPSVIGLIVGNAFGIQEVVGGGFGAAIMHGIRRGLFSNEAGMGSAPNAAATAHVSHPVKQGLVQSLSVLTDTLIICSATAFLILLTDVYTVGEMGGIQLTQEALTVHIGEWSMTFVTIAISFFAFSSLLGNYYYGEANIQFISQNRALLTVFRLAFLAMILIGATSELQIIWEMADLIMGAMAIVNLIAIALLAKIAVQALTDYQHQRKQGIDPVFYKNSLPDLKNIEAWDEKPVKEKN | failed
2 | MSQQAARKLEKADIEAIFARSRFISAMNLEILDIDHAGSRFSVRMPLQDTYERGAPGTKQFHGGALAALIDVVGDFAIGMLVGGGVPTMNLRIDYLRPAVGDYVDGVAVVRKAGKSAAVVDIDILCPAGKLVAIGRGTYVPITG | failed
3 | MTSGGNSIEPSVVAEAEKMLFCYQYDQTITISITSSADPCPLCNGGFLDEYVDPNPNPIPNLILPMSDPISSRFSFIPVMDFTNPSFLGESMEPQSTQQQLNAFDPNQLSDQANPLAGNHGDYFFGRGLEDLI | failed
4 | MDLRVLLSGLAYSTIFGLSFLFTKNALDYVTPLTFLSFRFIVAFLSYLLLLITGAVKLGKKPYWKLWKLVLFQPVLYFLFETYGLQRVNSSEAGMIIALIPIVVNLLAPFILKEKGDLLHYLLVGMGFLGVSLIVGFNITPGNIVGKVFMLLAVLSGAMYSVFSRKFSKEFTPTEITFFMMMTGAVFFTLLSLSTGDFRPVFNVDVVIGALYLGVLSSTVAFFLLNYAIRKLSPIFTTLFSNFTTVVSVIAGVVFRNETVGIQQIAGMGLIISSLIIMSLRRSYKRLSRAQKL | failed
5 | MSLRNPVLAGLSVEEIREAVSGEYLIEPREEKMVEQVVIGAMSPQSALRYLREARNAALVTGGDRSDLLLTALEMPNVRCLILTGNLEPVQLVLTKAEERGVPVILTGHDTLTAVSRLESVFGRTRIRGEPKVGIMRELFESEGHHHHHH | not failed
6 | MRIGVIMGGVSSEKQVSIMTGNEMIANLDKNKYEIVPITLNEKMDLIEKAKDIDFALLALHGKYGEDGTVQGTLESLGIPYSGSNMLSSGICMDKNISKKILRYEGIETPDWIELTKMEDLNFDELDKLGFPLVVKPNSGGSSVGVKIVYDKDELISMLETVFEWDSEVVIEKYIKGEEITCSIFDGKQLPIISIRHAAEFFDYNAKYDDASTIEEVIELPAELKERVNKASLACYKALKCSVYARVDMMVKDGIPYVMEVNTLPGMTQASLLPKSADAAGIHYSKLLDMIIETSLRVRKEEGF | not failed
7 | MKSTAEYLEDPEQAADRALSLLQDLGGLSAAAAWGRSGVMWRRLAGFGDLAGLPDGAALAAGERPPAGGAMAMRAGDGALGWLAWQGKPPGQMETVAELLAGHLQCEALRAEQAATRVANETMLEISLLAGECPTLDRLLPRLHRLMQRLMDADNFYIALCGDDRSTLSFPFYADRREASPPDPERAFPIAGPDVSLTAWLIRGGAPMVLTGERIEALCRQEALARPANLPAFWMGAPLRNAADELIGAAVLQRYDDQPPLTSAEQLLFMFAARHVGFALDRVLYHRRLERQVALRTSELEGANARLRAEVASRKRAEKFQDVLFRIAELSNTSLSLEAFLSGLHRLLLEMVAARNCVVALYDMGSDLISFPYCADEYAPALKPRKPGKGLIEQVLHSGRPLLLDPYGSLQGMAAAEGATPPKSWLGVPLYCDHELLGVLAVQSYDGDVVYGYRDQEVLEFVANHIGTALARVRALESLQHAYADLEQRVRERTSELDAVNAQLEFDSLHDPLTKLPNRNYFSKALRRAWDAYLDGGDRFAVVFIDLDRFKLVNDTLGHLAGDHLLFEAGARIRSCLRHYDFLARLGGDEFAVLMFGMDAVDECEVIARRIVSEFERPVVLAGREVFSTASVGVVLADSEHYHKADDLLRDADHAMYCTKQQGRQGYTLFSHQLRIDQADQLALETELRRALEEEGQLVPYYQPFIAAATGALAGFETLVRWQHPQRGLVSPGVFLPVAEESGLITRLDRYMINAACAQLQAWRAEGRVGEGIALHINLSSANFRDPDLVGWIGERIAHYRLPPAMLHLEITESALIDQPEAAATAMQALHGLGVRLALDDFGTGYSALSYLHRYRFDVLKIDQSFVFDLDRKQESVAIVRAILALARALDLEVVAEGVETASQSAMLKEMGCGMLQGFHFAAPAPAWALDWDKLARFAEGPGRVA | failed
8 | VRSQVLKYMVPGARVIRGLDWKWRDQDGSPQGEGTVTGELHNGWIDVTWDAGGSNSYRMGAEGKFDLKLAPGY | not failed
9 | MAAGALPAREPGLLKPAVLWLLLLAPLFFSTYGFATWVTAQRDDVGSMVFDWERHMPFWAWTIVPYWSIDLLYGFSLLLPRSRDELKRHALRLLTAQVIAVSCFLLWPLSFTFSRPELDGVFGWLFAVLAGFDKPFNQAPSLHIALLVVLWVCYARHTQGFWRWLVHGWFALIGVSVLSTYQHHFIDVPTGALAGWLCVWLWPLDRPSPLFSARAAQDPKRRQLALRYGLGATLFAGAAFAWGGAALWLIWPAVALLLVALNYALLGAEGFQKRQDGSLSPAARWLLAPYLAAAWINSRLWTRKHPQPDPVVDNVWLGRLPTPAELKDSPFDAVLDLCAELSLDSRGLRAYQSLPVLDLCAPSAEQCLAAAHAIERLRQQGPLLVCCALGYSRSATAIAAWLLHSGRAATVDAAIVQIQRARPQIVLHPAHRQALQALSSAGRTAHVH | failed
10 | MSRSVLQPSQQKLAEKLTILNDRGVGMLTRLYNIKKACGDPKAKPSYLIDKNLESAVKFIVRKFPAVE | failed
11 | MQFFTSDTHFFHKDLLGDSDFAPRPFASVDEMNQTIIDNWNARVAETDTVYHLGDIALYFTKPAIKSDEAVFNVLSQLNGHLELIKGNHDSRALFKYLAAHNFSDHGQPKFAFHDVGALIKYDHRQYYLTHYPMMLGIVNQIINLHGHIHHYAVPVKENINVGVDTPEQRYLTTSVPFGTPFSPTEIEQMVTGKAQEFREKQLEHHHHHH | failed
12 | MSPSHSINSNSDGNASCSTCSTCFDTTTSTTDEEYDALIKTKTWSLVPKPAGTNIINSIWLYKHKYNADGSLSRYKSRLVANGKSQEHGVDFYETFSPVVKPATIRAVLNFAVERDSSVHQLDVQNAFLHGKLEETVYMYEPPGFVDNKNPGYVCKLNKALYGFKQAPRAWNARFASYVKMMGFKQSKCDASLFVYKQGNDMAYLLLYVDDIMLTASSPSQEKYAKNIINIVEMQNWKPSLTSVDLACKLEESVGPKIQDLTLYRSLVGALQYLTITRPNISYAVQQGLSITKSPSTKLVADSDADWVGCPNTRRSTSGYCVFLRDTLISWSSKRQGSVSRSSAEAEYKAVANAVVATCEVRVIHIPASHQYADIFTKGLTTSLFNRFKSSLGVIQRPTKRLREGDLLFNRKDEIRTFEVVSRYGHGPKLLGRFSGGRIEEFINARTLSAANLRDAEVPTRVAAKLREFHGINIPGDRNVLIWDRMRNWLRQAKSLCTPEDLAEFGLDKIEDEIYLLEHELQDKCKQQEIGFCHNDLQYGNIMIDEDTNAITIIDYEYASYNPVAYDIANHFCEMAANYKVAGEEERRRFIHNYLSSSGEEPKEDDIKQLLKDAEKYTLASHLFWGLWGIISGYVNKIDFDYAEYSRQRFKQYWLRKPELLLFSQMYISNTK | failed
13 | MEVIVVDDEELSLNRLGNMLAGMPGVEVCGLFYTAAEALRYINENKPDAVFLDICIPETDGLALANKIKDIDGSAKVVFVTGYDEYAVRAFELEAVDYLMKPISRDRLEKTVQRLQRTLLGTDRQSNPQMKVSCFGGFRATVCESDSGSVNWRSPKTEELFAFLIFKRNVSRDEIANTLWDGLEPGRALTNINSTMYYIRKALSPHGLEKCIAATRKEIRIDSELISCDLYEFERLLRGRPSSKDRVETLDRLAELYKGELFQGKAYEWSFAKSRSLESGFISALLETAEYYREKRGYEQAEKMYKRAFEIDPFNEDICGHIIQICLKMGRKSEALRLYLQMEKFLMEELGEKPQAKLKKLFEEQ | failed
14 | MKRSIEDTPIVLIGAGNLATNLAKALYRKGFRIVQVYSRTEESARELAQKVEAEYTTDLAEVNPYAKLYIVSLKDSAFAELLQGIVEGKREEALMVHTAGSIPMNVWEGHVPHYGVFYPMQTFSKQREVDFKEIPFFIEASSTEDAAFLKAIASTLSNRVYDADSEQRKSLHLAAVFTCNFTNHMYALAAELLKKYNLPFDVMLPLIDETARKVHELEPKTAQTGPAIRYDENVIGNHLRMLADDPAMQRLYELLSRSIHERQ | not failed
